Measurements reported in publication PMC9470164, “Membrane-mediated dimerization potentiates PIP5K lipid kinase activity” (eLife, 2022).

What was measured:
[1] = target: human PIP5KB (D51R), purified, unlabelled (human)
[2] = target: mNG-PIP5KB, recombinantly expressed and purified (human) (UniProt O14986)
[3] = target: mNG-PIP5KB, recombinantly expressed and purified (human) (UniProt O14986); test: single-molecule TIRF molecular brightness, photobleaching and tracking on supported lipid bilayers; purified mNG kinases at 100 pM; equilibrium membrane binding at ~600 kinases per field of view (0.2 kinases/µm^2); particles with intensity ≥8200 A.U. counted as dimers; membrane 96% DOPC, 4% PI(4,5)P2
[4] = target: mouse PIP5KA (D92R), purified (mouse)
[5] = target: mouse PIP5KA, purified (mouse)
[6] = target: the molecule itself; test: single-molecule TIRF molecular brightness and photobleaching on supported lipid bilayers; mNG-tagged kinase in HEK293 cell lysate diluted ~10,000-fold to ~10 pM (legend: 1 pM mNG-PIP4KB, 5 pM mNG-PIP5K); low surface density ~0.03 molecules/µm^2; membrane 96% DOPC, 4% PI(4,5)P2; 23°C
[7] = target: the molecule itself; test: single-molecule TIRF molecular brightness on supported lipid bilayers; purified kinases labelled with Alexa488 by Sortase-mediated peptide ligation; membrane 96% DOPC, 4% PI(4,5)P2

With “human PIP5KB (D51R), purified, unlabelled (enzyme)” as the molecule, how does the lipid kinase activity on supported lipid bilayers, reduction against wild-type PIP5KB [1] read?
Its lipid kinase activity on supported lipid bilayers, reduction against wild-type PIP5KB is 7 fold.

Which results are given for “mNG-PIP5KB, recombinantly expressed and purified (from UniProt O14986 1-540) (enzyme)”?
effective phosphorylation rate constant per membrane-bound kinase (after the transition from slow to fast kinetics) (lipids/µm^2•s per kinase) [2]: 0.0027; fold frequency of dimers against mNG-PIP5KB (D51R) [3]: 5 fold; stoichiometry N [3]: 2; time that dimers persist before photobleaching or dissociating [3]: 1 to 2 s

mouse PIP5KA (D92R), purified (enzyme) was tested. Which reaction half-time of PI(4,5)P2 production at 5, 2.5 and 1 nM kinase (71 s, 139 s, 270 s) [4] did it give?
The reaction half-time of PI(4,5)P2 production at 5, 2.5 and 1 nM kinase (71 s, 139 s, 270 s) was 270 s.

Which reaction half-time of PI(4,5)P2 production at 5, 2.5 and 1 nM kinase (28 s, 49 s, 90 s) [5] does the source give for mouse PIP5KA, purified (enzyme) here?
The reaction half-time of PI(4,5)P2 production at 5, 2.5 and 1 nM kinase (28 s, 49 s, 90 s) was 90 s.

B1: mNeonGreen-tagged human phosphatidylinositol 5-phosphate 4-kinase type-2 beta (mNG-PIP4KB) (enzyme, UniProt P78356 1-416, looked up)
chain: MSSNCTSTTAVAVAPLSASKTKTKKKHFVCQKVKLFRASEPILSVLMWGVNHTINELSNVPVPVMLMPDDFKAYSKIKVDNHLFNKENLPSRFKFKEYCPMVFRNLRERFGIDDQDYQNSVTRSAPINSDSQGRCGTRFLTTYDRRFVIKTVSSEDVAEMHNILKKYHQFIVECHGNTLLPQFLGMYRLTVDGVETYMVVTRNVFSHRLTVHRKYDLKGSTVAREASDKEKAKDLPTFKDNDFLNEGQKLHVGEESKKNFLEKLKRDVEFLAQLKIMDYSLLVGIHDVDRAEQEEMEVEERAEDEECENDGVGGNLLCSYGTPPDSPGNLLSFPRFFGPGEFDPSVDVYAMKSHESSPKKEVYFMAIIDILTPYDTKKKAAHAAKTVKHGAGAEISTVNPEQYSKRFNEFMSNILT
notes: human phosphatidylinositol 5-phosphate 4-kinase type-2 beta (PIP4KB, PIP4K2B); Lentiviral vector with SFFV promoter; also called hPIP4K2B; source: HEK293T, transiently transfected, in clarified cell lysate (diluted); not shown: mNeonGreen, N-terminal, kept
How did the “stoichiometry N” value [6] turn out when B1 was run?
The value was 2.

B2: Alexa488-labelled human PIP4KB (Ax488-PIP4KB), purified (enzyme)
chain: GGGGGMSSNCTSTTAVAVAPLSASKTKTKKKHFVCQKVKLFRASEPILSVLMWGVNHTINELSNVPVPVMLMPDDFKAYSKIKVDNHLFNKENLPSRFKFKEYCPMVFRNLRERFGIDDQDYQNSVTRSAPINSDSQGRCGTRFLTTYDRRFVIKTVSSEDVAEMHNILKKYHQFIVECHGNTLLPQFLGMYRLTVDGVETYMVVTRNVFSHRLTVHRKYDLKGSTVAREASDKEKAKDLPTFKDNDFLNEGQKLHVGEESKKNFLEKLKRDVEFLAQLKIMDYSLLVGIHDVDRAEQEEMEVEERAEDEECENDGVGGNLLCSYGTPPDSPGNLLSFPRFFGPGEFDPSVDVYAMKSHESSPKKEVYFMAIIDILTPYDTKKKAAHAAKTVKHGAGAEISTVNPEQYSKRFNEFMSNILT
modifications: Alexa488 on the N-terminal amine of the ligated LPETGG peptide
notes: glycine stretch of his6-SUMO3-GGGGG-PIP4K2B left after SenP2 cleavage; human PIP4K2B isoform 2, 1-416aa; Surmise: Sortase ligation leaves Alexa488-LPET joined to GGGGG-PIP4K2B; also called Alexa488-PIP4K; PIP4K2B; source: E. coli BL21(DE3) Star, purified (Co2+ HiTrap Chelating, Superdex 200), labelled by Sortase-mediated peptide ligation; not shown: His6, N-terminal, cleaved; SUMO3, N-terminal, …
Does B2 bind [7]?
Result: binds
